This is an account of results in patent publication US12577311 (Dana-Farber, dated 2026).

Holding throughout (assay): cell-based or functional assay
Assay [1] concerns the target monkey CAIX on transduced skrc-59 cells (monkey).
Assay [2] addresses hamster CAIX on transduced skrc-59 cells (hamster).
In assay [3] the target is mouse CAIX on transduced skrc-59 cells (mouse, UniProt Q8VHB5 32-437).
Chain of mouse CAIX on transduced skrc-59 cells (Q8VHB5 32-437): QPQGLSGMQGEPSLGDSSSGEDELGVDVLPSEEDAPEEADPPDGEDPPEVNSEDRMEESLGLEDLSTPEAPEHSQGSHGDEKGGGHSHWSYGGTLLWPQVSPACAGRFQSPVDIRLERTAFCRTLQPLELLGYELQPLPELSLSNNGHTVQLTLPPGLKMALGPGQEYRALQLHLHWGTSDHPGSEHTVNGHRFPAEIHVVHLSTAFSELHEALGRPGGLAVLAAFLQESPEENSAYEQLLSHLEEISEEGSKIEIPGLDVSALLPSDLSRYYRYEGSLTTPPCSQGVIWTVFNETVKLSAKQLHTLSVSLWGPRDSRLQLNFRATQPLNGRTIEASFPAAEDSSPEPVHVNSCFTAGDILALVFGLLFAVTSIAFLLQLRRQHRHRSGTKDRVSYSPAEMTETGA

B1: anti-CAIX (G36) CAR (scFv, V domains shown)
VH: EVQLVQSGGGVVQPGGSLRLSCAASGFPFSSYAMSWVRQAPGKGLEWVSAISANGGTTYYADSVKGRFTISRDNSKNTLYLQMNSLRAEDTAVYYCANNGNYRGAFDIWGQGTMVTVSS
VL: QSVLTQPPSVSGAPGQRVTISCTGSSSNIGAGFDVHWYQQLPGTAPKLLIYGNTNRPSGVPDRFSGSKSGTSASLAITGLQAEDETDYYCQSYDSRLSAWVFGGGTKLTVLG
In the case of B1, the “killing assay of anti-CAIX (G36) CAR T cells” value in assay [1] amounted to 100%; in assay [2] it was 50%; in assay [3] it was 50%.
